Measurements as given in patent US20210325403.

Target: T1, caspase-3 substrate CGKRKGDEVDSG
T1 chain: CGKRKGDEVDSG

B1: caspase-3 (protein)
chain: SGISLDNSYKMDYPEMGLCIIINNKNFHKSTGMTSRSGTDVDAANLRETFRNLKYEVRNKNDLTREEIVELMRDVSKEDHSKRSSFVCVLLSHGEEGIIFGTNGPVDLKKITNFFRGDRCRSLTGKPKLFIIQACRGTELDCGIETDSGVDDDMACHKIPVEADFLYAYSTAPGYYSWRNSKDGSWFIQSLCAMLKQYADKLEFMHILTRVNRKVATEFESFSFDATFHAKKQIPCIVSMLTKELYFYH
- cleavage of the immobilised substrate, read by SAMDI mass spectrometry: we also observed a peak corresponding to the caspase-3 product at 144 Da lower than the initial substrate mass
